# Paper PMC2621353, “Residues Clustered in the Light-Sensing Knot of Phytochrome B are Necessary for Conformer-Specific Binding to Signaling Partner PIF3” (PLoS Genetics, 2009)
# B1: full-length phytochrome B (phyB), wild type, in vitro translated [modified: 35S-methionine labelled; 35S-methionine labelled] [Arabidopsis thaliana] / GAD-PIF3, in vitro translated [modified: 35S-methionine labelled … (parent)
# chain 1: MVSGVGGSGGGRGGGRGGEEEPSSSHTPNNRRGGEQAQSSGTKSLRPRSNTESMSKAIQQYTVDARLHAVFEQSGESGKSFDYSQSLKTTTYGSSVPEQQITAYLSRIQRGGYIQPFGCMIAVDESSFRIIGYSENAREMLGIMPQSVPTLEKPEILAMGTDVRSLFTSSSSILLERAFVAREITLLNPVWIHSKNTGKPFYAILHRIDVGVVIDLEPARTEDPALSIAGAVQSQKLAVRAISQLQALPGGDIKLLCDTVVESVRDLTGYDRVMVYKFHEDEHGEVVAESKRDDLEPYIGLHYPATDIPQASRFLFKQNRVRMIVDCNATPVLVVQDDRLTQSMCLVGSTLRAPHGCHSQYMANMGSIASLAMAVIINGNEDDGSNVASGRSSMRLWGLVVCHHTSSRCIPFPLRYACEFLMQAFGLQLNMELQLALQMSEKRVLRTQTLLCDMLLRDSPAGIVTQSPSIMDLVKCDGAAFLYHGKYYPLGVAPSEVQIKDVVEWLLANHADSTGLSTDSLGDAGYPGAAALGDAVCGMAVAYITKRDFLFWFRSHTAKEIKWGGAKHHPEDKDDGQRMHPRSSFQAFLEVVKSRSQPWETAEMDAIHSLQLILRDSFKESEAAMNSKVVDGVVQPCRDMAGEQGIDELGAVAREMVRLIETATVPIFAVDAGGCINGWNAKIAELTGLSVEEAMGKSLVSDLIYKENEATVNKLLSRALRGDEEKNVEVKLKTFSPELQGKAVFVVVNACSSKDYLNNIVGVCFVGQDVTSQKIVMDKFINIQGDYKAIVHSPNPLIPPIFAADENTCCLEWNMAMEKLTGWSRSEVIGKMIVGEVFGSCCMLKGPDALTKFMIVLHNAIGGQDTDKFPFPFFDRNGKFVQALLTANKRVSLEGKVIGAFCFLQIPSPELQQALAVQRRQDTECFTKAKELAYICQVIKNPLSGMRFANSLLEATDLNEDQKQLLETSVSCEKQISRIVGDMDLESIEDGSFVLKREEFFLGSVINAIVSQAMFLLRDRGLQLIRDIPEEIKSIEVFGDQIRIQQLLAEFLLSIIRYAPSQEWVEIHLSQLSKQMADGFAAIRTEFRMACPGEGLPPELVRDMFHSSRWTSPEGLGLSVCRKILKLMNGEVQYIRESERSYFLIILELPVPRKRPLSTASGSGDMMLMMPY
# chain 2: MPLFELFRLTKAKLESAQDRNPSPPVDEVVELVWENGQISTQSQSSRSRNIPPPQANSSRAREIGNGSKTTMVDEIPMSVPSLMTGLSQDDDFVPWLNHHPSLDGYCSDFLRDVSSPVTVNEQESDMAVNQTAFPLFQRRKDGNESAPAASSSQYNGFQSHSLYGSDRARDLPSQQTNPDRFTQTQEPLITSNKPSLVNFSHFLRPATFAKTTNNNLHDTKEKSPQSPPNVFQTRVLGAKDSEDKVLNESVASATPKDNQKACLISEDSCRKDQESEKAVVCSSVGSGNSLDGPSESPSLSLKRKHSNIQDIDCHSEDVEEESGDGRKEAGPSRTGLGSKRSRSAEVHNLSERRRRDRINEKMRALQELIPNCNKVDKASMLDEAIEYLKSLQLQVQIMSMASGYYLPPAVMFPPGMGHYPAAAAAMAMGMGMPYAMGLPDLSRGGSSVNHGPQFQVSGMQQQPVAMGIPRVSGGGIFAGSSTIGNGSTRDLSGSKDQTTTNNNSNLKPIKRKQGSSDQFCGSS
# Variants of: B1
# Assay: in vitro co-immunoprecipitation
# Details: with GAD-PIF3, in vitro translated [modified: 35S-methionine labelled, GAD-PIF3 as bait, phyB as prey, 35S-met in vitro translated proteins
# [1] = phyB in Pfr form, parent: 17, read off a plot
# [2] = phyB in Pr form, parent: 1, read off a plot
# [3] = phyB in Pfr form, parent: 13, read off a plot
# [4] = phyB in Pfr form, parent: 3.8, read off a plot
# [5] = phyB in Pfr form, parent: 9.1, read off a plot
Variant,screen value (relative to wild-type phyB Pr = 1) [1],screen value (relative to wild-type phyB Pr = 1) [2],screen value (relative to wild-type phyB Pr = 1) [3],screen value (relative to wild-type phyB Pr = 1) [4],screen value (relative to wild-type phyB Pr = 1) [5]
chain 1 C345R,5.1,2,–,–,–
chain 1 G348D,–,1,2.6,–,–
chain 1 C119Y,–,0.45,–,0.9,–
chain 1 P411L,–,1,–,–,4.1
chain 1 R415W,–,0.45,–,0.58,–
chain 1 L256C,–,1,2.8,–,–
chain 1 I308T,2.3,1,–,–,–

# Now from value to variant:
screen value (relative to wild-type phyB Pr = 1) [1],screen value (relative to wild-type phyB Pr = 1) [2],screen value (relative to wild-type phyB Pr = 1) [3],screen value (relative to wild-type phyB Pr = 1) [4],screen value (relative to wild-type phyB Pr = 1) [5],Variant
4.8,2.4,–,–,–,chain 1 S367P
3.9,2,–,–,–,chain 1 V273L
–,1.4,1.7,–,–,chain 1 S343Y
–,2,1.9,–,–,chain 1 V264E
–,1.6,–,–,3.1,chain 1 S134G
